Assay results: paper PMC10914600, “Synthesis of lipid-linked precursors of the bacterial cell wall is governed by a feedback control mechanism in Pseudomonas aeruginosa” (Nature Microbiology, 2024)

Molecular target: the molecule itself
Assay: cryo-EM structure; YES(T23P) complex (EcMraY(T23P), protein E, SlyD) co-expressed and purified in DDM; 5 mg/ml in 10 mM HEPES pH 7.5, 75 mM NaCl, 2% glycerol, 5 mM βME, 0.03% DDM, 1 mM E. coli total lipid extract; focused refinement of MraY alone after particle subtraction, final map 3.8 Å

B1: E. coli MraY(T23P) (enzyme)
chain: MLVWLAEHLVKYYSGFNVFSYLPFRAIVSLLTALFISLWMGPRMIAHLQKLSFGQVVRNDGPESHFSKRGTPTMGGIMILTAIVISVLLWAYPSNPYVWCVLVVLVGYGVIGFVDDYRKVVRKDTKGLIARWKYFWMSVIALGVAFALYLAGKDTPATQLVVPFFKDVMPQLGLFYILLAYFVIVGTGNAVNLTDGLDGLAIMPTVFVAGGFALVAWATGNMNFASYLHIPYLRHAGELVIVCTAIVGAGLGFLWFNTYPAQVFMGDVGSLALGGALGIIAVLLRQEFLLVIMGGVFVVETLSVILQVGSFKLRGQRIFRMAPIHHHYELKGWPEPRVIVRFWIISLMLVLIGLATLKVR
notes: MraY of E. coli, integral membrane enzyme that forms lipid I; The methods name the plasmid pRSFDuetEcMraY-E_(ID21) without the T23P change; also called ^EcMraY(T23P); MraY of the YES(T23P) complex; source: E. coli ∆slyD BL21(DE3), co-expressed with protein E and SlyD, purified as the YES complex (DDM, NiNTA, SEC)
stoichiometry N: 2
